Key:
Assay type in all cases: binding, Arabidopsis thaliana
[1] = tested on: FER ectodomain (6×His-tagged); conditions: 6×His-tagged ectodomain purified from insect cells; biotinylated peptide
[2] = tested on: ANJ ectodomain (6×His-tagged); conditions: 6×His-tagged ectodomain purified from insect cells; biotinylated peptide
[3] = tested on: HERK1 ectodomain (6×His-tagged); conditions: 6×His-tagged ectodomain purified from insect cells; biotinylated peptide
[4] = tested on: FER ectodomain (MBP-tagged); conditions: MBP-tagged ectodomain purified from Escherichia coli; biotinylated peptide
[5] = tested on: ANJ ectodomain (MBP-tagged); conditions: MBP-tagged ectodomain purified from Escherichia coli; biotinylated peptide
[6] = tested on: HERK1 ectodomain (MBP-tagged); conditions: MBP-tagged ectodomain purified from Escherichia coli; biotinylated peptide

B1: RALF16: RALF (rapid alkalinization factor) peptide, pollen tube–specific, Arabidopsis (peptide)
peptide: RTLGYGSIKGDRIPACGYKNPNSCVKQPVNHYHRGCEKITRCARDAARYTESFNVDDDESPIINLH
modifications: also: biotin, position not given here
bind: binding to FER ectodomain (pull-down) [1] | binding to ANJ ectodomain (pull-down) [2] | binding to HERK1 ectodomain (pull-down) [3] | binding to FER ectodomain (pull-down) [4] | binding to ANJ ectodomain (pull-down) [5] | binding to HERK1 ectodomain (pull-down) [6]

Source: paper PMC9040003 (Science (New York, N.Y.), 2022)
